Values of other authors in patent publication US20260250369A1, “METHODS OF TREATING LIVER FIBROSIS, INFLAMMATION OR ASSOCIATED DISEASES USING AN ANGPTL4 ANTAGONIST” (Nanyang Technological University, priority 2022, published 2026).

Molecular target: T1, human cANGPTL4 (Homo sapiens, UniProt Q9BY76)
T1 sequence (Q9BY76 186-406 limits assumed): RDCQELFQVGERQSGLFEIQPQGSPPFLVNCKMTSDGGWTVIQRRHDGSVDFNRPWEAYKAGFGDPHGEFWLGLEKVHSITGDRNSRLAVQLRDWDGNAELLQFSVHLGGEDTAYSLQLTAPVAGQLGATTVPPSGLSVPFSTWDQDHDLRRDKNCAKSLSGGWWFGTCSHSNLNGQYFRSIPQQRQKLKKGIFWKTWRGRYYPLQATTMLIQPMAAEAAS

B1: mAb11F6C4: murine monoclonal antibody directed against human cANGPTL4; heavy chain SEQ ID NO 15, light chain SEQ ID NO 16 (antibody, V domains shown)
VH: QVQLQESGPGILKPSQTLSLTCSFSGFSLSTSGMGVGWIRQPSGKGLERLAHIWWDDDKYYNPSLKSQLTISKDTSRNQVFLKIISVDTADTATYYCARKDYGSSYDYRGQGTTVTVS
VL: DIELTQSPASLAVSLGQRATISCKASQSVDYDGDSYLNRFQQKPGQPPKLLIYTASNLESGIPARFSGSGSGTDFTLNIHPVEEEDAATYYCQQSNEDPWTFGGGTKLEIKR
**Q.** Which “Effect on mitochondrial activities and glucose regulations of ANGPTL4” value does the source give for B1 here?
**A.** The value was “does not affect”.

**Q.** And the Epitope targeted?
**A.** The Epitope targeted was “target an epitope that resides within the C-terminus of human ANGPTL4”.
